Where two headings read alike, the source gives them in different places. Square brackets hold non-standard residues; d marks the D form. Ends that are not written are not given here. pS = N[C@@H](COP(=O)(O)O)C(=O)O
Legend:
[1] = target: importin α5 (79-538) in the ITC cell (human) (UniProt P52294); experiment: ITC
[2] = target: importin α5 (79-538) in the ITC cell (human) (UniProt P52294); experiment: ITC; remark: listed apart in the source

Binder	Kd [1]	Kd [2]	dH [2]
KRPRSPSS (not fully specified) [unphosphorylated EBNA-1 NLS peptide (379-KRPRSPSS-386)]	60 µM	30 µM	6.55 kcal/mol
KRPRSP[pS]S [phosphorylated EBNA-1 NLS peptide (379-KRPRSPpSS-386)]			6.95 kcal/mol

— publication PMC2930068
